From PMC3902906

Tests used:
Assay in all cases: ITC
Settings in all cases: ITC: 10 mM HEPES, 150 mM NaCl, pH 7.5, 25 C, 100 uM DNA into 10 uM CsoR tetramer; EMSA: same buffer, room temperature, 30 min, 6% PAGE in TBE; SEC: same buffer
[1] = biological target: CsoRSl R129A (Streptomyces lividans 1326) (UniProt D6EK73)
[2] = biological target: CsoRSl R132A (Streptomyces lividans 1326) (UniProt D6EK73)
[3] = biological target: CsoRSl R54A (Streptomyces lividans 1326) (UniProt D6EK73)

Sequence: CGGACAAATACCCCTGGTGGGTATATATGG (double strand) [csoR-EXT]
- Kd [1]: 134 nM
- Kd [2]: 309 nM
- Kd [3]: 2060 nM
